Results as given in the nanobody polyreactivity screen of Harvey et al. (2022).

Experiment: yeast display, Sf9 membrane polyspecificity reagent, FACS + sequencing; frameworks hold sequencing errors
Outline: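 Galactose induction of a Saccharomyces cerevisiae BJ5465 synthetic nanobody display library ran 36–48 hours. The cells were then stained for 1 hour at 4 °C with 10% biotinylated, detergent-solubilized Sf9 membrane reagent, pulled down on streptavidin microbeads and FACS-sorted into low and high (top ~1%) gates on expression and reagent-binding fluorescence. Labels for polyreactivity follow the gate of origin.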

**Q.** For “QVQLVESGGGLVQAGCSLRLSCAASGRIFYYNTMGWYRQAPGKERELVAAINFSGDRTYYADSVKGRFTISRDNAKNTVYLQMNSLKPEDTAVYYCAAQGYWYGYQPGNFWGQGTQVTVSS”, which “polyreactivity (PSR sort gate)” value is on record?
**A.** high polyreactivity

**Q.** For “QVQLVESGGGLVQAGCSLRLSCAASGRSIAYNAMGWYRQAPGTERELVAAISWSGGSTYYADSVKGRFTISRDNAKNTVYLQMNSLIPEDTAVYYCAKRFAQYRYPYDYWGQGKQVTVSS”, which “polyreactivity (PSR sort gate)” value is on record?
**A.** high polyreactivity

**Q.** For “QVQLVESGGGLVQAGCSLRLSCAASGRTFGGYALGWYRQAPGKERELVAAISRGGNTYYADSVKGRFTISRDNAKNTVYLQMNSLKPEDTAVYYCNVARGNPVPPSEYWGQGTQVTVSS”, which “polyreactivity (PSR sort gate)” value is on record?
**A.** low polyreactivity

**Q.** For “QVQLVESGGGLVQAGCSLRLSCAASGRTGFNAMGWYRQAPGKERELVASIRSGGTSTYYADSVKGRFTISRDNAKNTVYLQMNSLKPEDTAVYYCYDYWGHGTQVTVSS”, which “polyreactivity (PSR sort gate)” value is on record?
**A.** low polyreactivity

**Q.** For “QVQLVESGGGLVQAGCSLRLSCAASGSIFRAYAMGWYRHAPGKERELVAGISGSGGSTYYADSVKGRFTISRDNAKNTVYLQMNSLKPQDTAVYYCAKALSTYQRTGCYDYWGQGTQVTVSS”, which “polyreactivity (PSR sort gate)” value is on record?
**A.** high polyreactivity

**Q.** For “QVQLVESGGGLVQAGCSLRLSCAASGSTFDNYAMGWYRQAPGKERELVAAISSSGTRTYYADSVKGRFTISRDNAKNTVYLQMNSLKPEDTAVYYCAAGGHYYSSPGYNYWGLGTQVTVSS”, which “polyreactivity (PSR sort gate)” value is on record?
**A.** high polyreactivity

**Q.** For “QVQLVESGGGLVQAGCSLRLSCAASGSTFFSNAMGWYRQAPGKFRELVAGITFSGGSTYYADSVKGRFTISRDYAKNTVFLQMNSLKPEDTAVYYCAASPPYKLVWWRRMDYWGQGTQVTVSS”, which “polyreactivity (PSR sort gate)” value is on record?
**A.** low polyreactivity

**Q.** For “QVQLVESGGGLVQAGCSLRLSCAASGSTFRYYPMGWYRQAPGKEREFVAAITWRDGSTYYADSVKGRFTISRDNAKNTVYLQMNSLKPEDTAVYYCAARNSHVGYYDEYYYWGQGTQVTVSS”, which “polyreactivity (PSR sort gate)” value is on record?
**A.** low polyreactivity

**Q.** For “QVQLVESGGGLVQAGCSLRLSCAASGSTLDGNAMGWYRQPPGKERELVAAISVSGGTTYYADSVKGRFTISRDNAKNNVYLQMNSLKREDTAVYYCSTEWRPRYYGTEPFDSWGQGTQVTVSS”, which “polyreactivity (PSR sort gate)” value is on record?
**A.** high polyreactivity

**Q.** With “QVQLVESGGGLVQAGCSLRLSCAASGYIFYIYAMGWYRQAPGKERELVAAITWSGDTTYYADSVKGRFTISRDNAKNTVYLQMNSLKPEDTAVYNCATYYYYPSWYLLYGEYNYWGQGTQVTVSS” as the sequence, how does the “polyreactivity (PSR sort gate)” value read?
**A.** low polyreactivity

**Q.** For “QVQLVESGGGLVQAGCSLRLSCAATGRSFRRNTMGWYRQAPGKERELVAAISSSGSSTYYADSVKGRFTISRDNAKNTVFLQMNSLKPEDTAVYYCAARGRGQPFVRYDYWGQGTQVTVSS”, which “polyreactivity (PSR sort gate)” value is on record?
**A.** high polyreactivity

**Q.** For “QVQLVESGGGLVQAGCSLRLSCADSGLTFTFYAMGWYRQAPGKVRELVAAISTSGASTYYADSVKGRFTISRDNANNTVYLQMNSLKPEDTAVYYCAAEYSYSSYLWYDYWGQGTQVTVSS”, which “polyreactivity (PSR sort gate)” value is on record?
**A.** high polyreactivity

**Q.** With “QVQLVESGGGLVQAGCSLRLSCDASGFIFKVYAMGWYRQAPGKERELVASISFSGGRTYYADSVKGRFTISRDNAKNTFYLQMNSLKPEDSAVYYCNRSYVNKYYSWGQGTQVTVSS” as the sequence, how does the “polyreactivity (PSR sort gate)” value read?
**A.** high polyreactivity

**Q.** With “QVQLVESGGGLVQAGCSLRLSCDASGSIFPGNAMGWYRQAPGKEREFVAAISWSGGSTNYADSVKGRFTISRDNAKNTVYLQMNSLKPEDTAVYFCAKRFVRRDPTTQLYGKAYEYWGQGTQVTVSS” as the sequence, how does the “polyreactivity (PSR sort gate)” value read?
**A.** high polyreactivity

**Q.** For “QVQLVESGGGLVQAGCSLRLSCGASGSIFAYYDMGWYREAPGTEREVVAAITTRDDDTYYADSVKGRFTISRDTAKNPVYLQMNSLKPEDTAVYYCAAAWWDYGNGKYDYWGQGTQVTVSS”, which “polyreactivity (PSR sort gate)” value is on record?
**A.** low polyreactivity

**Q.** With “QVQLVESGGGLVQAGCSLRLSCSASGRIYYAMGWYRQADGKERELVATITRSGGRTYYADSVKGRFTISRDNAKITVYLQINSLKPEDTAVYYCAKQFGRPYVGSNSYCLTYDSWGEGTQVTVSS” as the sequence, how does the “polyreactivity (PSR sort gate)” value read?
**A.** low polyreactivity

**Q.** For “QVQLVESGGGLVQAGCSLRLSSAASGTIFGYYTMGRYRQAPGKEREIVAAISRSGGSTYYADSVKGRFTISRDNAHNTGYLQMNSLKPEHTAVYYCNADVYWEYDYWGQGTQVTVSS”, which “polyreactivity (PSR sort gate)” value is on record?
**A.** low polyreactivity

**Q.** Which “polyreactivity (PSR sort gate)” value does the source give for “QVQLVESGGGLVQAGCSLRLSWAASGFTFAYYAMGWSRQAPGKERDLVASITSSGGSTYYADSVKGRFTISRDNAKNTVYLQMNSLKPEDTAVYYCNKAYRGVYYGYEYWGQGTQVTVSS” here?
**A.** high polyreactivity

**Q.** Which “polyreactivity (PSR sort gate)” value does the source give for “QVQLVESGGGLVQAGCSLRLTCAASGFTFYKYAMGWYRQAPGKERELVAAISRRGTSTYYADAVKGRFTISRDNAKNTVYLQMNSLKPEDTAVYYCNRDVSLSAFDYWGQGTQVTVSS” here?
**A.** high polyreactivity

**Q.** For “QVQLVESGGGLVQAGCSLRLTCAASGSIFRTNAMGWSRQAPGKERELVAAITGSGGSTYYADSVKGRFTISRDNAKNTVYLQMNSLKPEDTAVYYCAAEFGSFVSPYNYYFWGLGTQVTVSS”, which “polyreactivity (PSR sort gate)” value is on record?
**A.** low polyreactivity

**Q.** With “QVQLVESGGGLVQAGCSLRLTCPASGSIIKLYAMGWYRQAPGKEREMVAAITSVGSTYYADSVKGRFTISRDNAKNTVYFQMKSLKPEDTAVYYCAASVYYLYFHAKYDYWGQGTLVTVSS” as the sequence, how does the “polyreactivity (PSR sort gate)” value read?
**A.** low polyreactivity

**Q.** For “QVQLVESGGGLVQAGCSLSISCAASGSTFFRYAMGLYRQAPGKERELVAAISKSGASTYYADSVKGSFTISRDNAKNTVYLQMNRLKPEDTAVYYCNADVKKSSAREWQYCYDYWGQGTQVTVSS”, which “polyreactivity (PSR sort gate)” value is on record?
**A.** low polyreactivity

**Q.** For “QVQLVESGGGLVQAGDSLRLSCAASGIILLSYAMGWYRQAPGKERELVAAITSGGGTNYADSVKGRFTISRDNAKNTVYLQMNSLKPEDTAVYYCAVGAYAGLYYYWGQGTQVTVSS”, which “polyreactivity (PSR sort gate)” value is on record?
**A.** low polyreactivity

**Q.** With “QVQLVESGGGLVQAGGCLRISFAASGLTFVWYGMGWYRPATGKERELVAAITSVRTTYYADSVKGRFTISRDNAKNSVYLQMTSLKAEDSGFYYCAAQWAGYGDLPWPYSVIVEFYYWGQGSQVTVSS” as the sequence, how does the “polyreactivity (PSR sort gate)” value read?
**A.** low polyreactivity

**Q.** Which “polyreactivity (PSR sort gate)” value does the source give for “QVQLVESGGGLVQAGGCLRLSCAASGFIFYVNAMGWYRLAPGKERELVAAISSSGTRTYYADSVKGRFTISRDNAKNTVYLQMNSLKPEDTAVYYCNAAQSVELGYDYWGQGTQVTVSS” here?
**A.** high polyreactivity

**Q.** For “QVQLVESGGGLVQAGGCLRLSCAASGVIFTRNVMGWYRQAPGKERELVAAISSGGRTYYADSVKGRFTISRDNAKNTVYLQMNSLKQEDTAVYYCNAGNRGVYRYDYWGQGTQVTVSS”, which “polyreactivity (PSR sort gate)” value is on record?
**A.** high polyreactivity

**Q.** For “QVQLVESGGGLVQAGGCLRLSCAASGYIFRVYDMGWYRQAPGKERELVAAISGSGGRTYYADSVKGRFTISRDNAKNTVYLQMISLKPEDTAVYDCSAYRVSEYDYWGQGTQVTVSS”, which “polyreactivity (PSR sort gate)” value is on record?
**A.** high polyreactivity

**Q.** For “QVQLVESGGGLVQAGGCLRLSCAASVRTFYYYAMGWYRQAPGKEMELVAAITSTGGSTYYADSVKGRFTISRDNAKNTVYLQMNSLKPEDTAVYYCNTDPYTTQWYTTWFEYWGQGTQVTVSS”, which “polyreactivity (PSR sort gate)” value is on record?
**A.** low polyreactivity

**Q.** With “QVQLVESGGGLVQAGGILLLSCAASGFIFWYYTMGWYKQAPGKERELVAAINSGGSTNYPDSVKGRFTSSRDNAKNTVYLQMNSLKPEDTAVYYCAALVWYSGELFYYWGQGTQVTVSS” as the sequence, how does the “polyreactivity (PSR sort gate)” value read?
**A.** low polyreactivity

**Q.** Which “polyreactivity (PSR sort gate)” value does the source give for “QVQLVESGGGLVQAGGILRISCAAYGSIFLAYVMGWYRQAPGKERELVAAISYRGGSTYYADSVKGRFTISRDNSKNTVYLQMNSLKPEDTAVYYCAAEHLWGLYNYWGQGTQVTVSS” here?
**A.** low polyreactivity

**Q.** With “QVQLVESGGGLVQAGGILRLSCAASGFIFGYYGMGWYRQAPGKERELVAAISRSGGGTFYAVSVKGRFTISRDNAKNTVYLQMNSLKPEDTAVYYCNAKYYRKSGLSGAYPYYYWGQGTQVTVSS” as the sequence, how does the “polyreactivity (PSR sort gate)” value read?
**A.** high polyreactivity

**Q.** Which “polyreactivity (PSR sort gate)” value does the source give for “QVQLVESGGGLVQAGGILRLSCAASGFTFDFNAMGWYRQAPGKERELVAAISSGASTNYADSVKGRYTISRDNAKNTVYLQMNRVIPLDSEVYYCAVYFYGSSTRSYQARFDYWGQGTQVTVSS” here?
**A.** high polyreactivity

**Q.** For “QVQLVESGGGLVQAGGILRLSCAASGFTFSWYAMGWYRQAPGKERELVAAINADGGTTYYADSVKGRFTISRDNAKNTVYLQMNSLKPEDTAVYYCAAELSVDKYDYWGQGTQVTVSS”, which “polyreactivity (PSR sort gate)” value is on record?
**A.** low polyreactivity

**Q.** Which “polyreactivity (PSR sort gate)” value does the source give for “QVQLVESGGGLVQAGGILRLSCAASGFTLADNTMVWYRQSPGKERELVADITSGASTYYADSVKGRFTISRDNAKNTVYLQMNSLKPEDTAVYYCAALYYWRSGYDYWGQGTQVTVSS” here?
**A.** low polyreactivity

**Q.** Which “polyreactivity (PSR sort gate)” value does the source give for “QVQLVESGGGLVQAGGILRLSCAASGIILYINAMGWYRQAPGKERELVAAITSDGSTNYADSVKGRITISRDNAKYTVYLQMNSLKPEDTAVYYCAVDLPWGTGVSQYPESDYWGQGTQVTVSS” here?
**A.** low polyreactivity

**Q.** For “QVQLVESGGGLVQAGGILRLSCAASGRIFGYNAMGWYRQAPGKERELVAAIRQRAGSTNYADSVKGRFTISRDNSKNTVYLQMKSLKPEDTAVYYCAVDGNFFGEVRPYDYWGQGSQVTVSS”, which “polyreactivity (PSR sort gate)” value is on record?
**A.** low polyreactivity

**Q.** With “QVQLVESGGGLVQAGGILRLSCAASGRIFKTYAMGWYRQAPGKERELVAAITASGGRTYYADSVKGRFTISRDNAKNTVYLQMNSLKPEDTAVYYCAADSGNEYDYWGQGTQVTVSS” as the sequence, how does the “polyreactivity (PSR sort gate)” value read?
**A.** low polyreactivity

**Q.** With “QVQLVESGGGLVQAGGILRLSCAASGRIFQPYAMGWYRQAPGKERELVAAISRGGTTYYADSVKGRFTISRDNAKNTVYLQMNSLKTEDTAVYYCAAPSYYRYDYWGQGTQVTVSS” as the sequence, how does the “polyreactivity (PSR sort gate)” value read?
**A.** high polyreactivity

**Q.** With “QVQLVESGGGLVQAGGILRLSCAASGRTFGLYAMGRYRQAPGKERELVAAITRSDGGTNYADSVKGRFTISRDNAKNTVYLQMNSLKAEDTAVYYCAVDLGYVSHVSWYAYEYWGQGTQVTVSS” as the sequence, how does the “polyreactivity (PSR sort gate)” value read?
**A.** low polyreactivity

**Q.** Which “polyreactivity (PSR sort gate)” value does the source give for “QVQLVESGGGLVQAGGILRLSCAASGRTFLYYAMGWYRQAPGKERELVAGITSGGSTNYADSVKGRFTISRDTAKNTDYLQMNSLKPEDTAVYYCAVDQGYYRTADVNYDYWGQGTQVTVSS” here?
**A.** low polyreactivity

**Q.** Which “polyreactivity (PSR sort gate)” value does the source give for “QVQLVESGGGLVQAGGILRLSCAASGSIFEYNAMGRYRKPPGKERELCASISWSGGSTYYADSVKGRYTISRDNAKNTVYLQMYSLKPEATAVYYCNVRKWSRWFRESYYWGQGTQVTVSS” here?
**A.** high polyreactivity
